Laboratory results as given in patent publication US20240287172A1 (SCIRHOM, published 2024).
Numbering of substitutions follows the chain as printed.

T1: hiR2-FL-G587N-T7 (human, UniProt Q6PJF5 1-856)
T1 sequence: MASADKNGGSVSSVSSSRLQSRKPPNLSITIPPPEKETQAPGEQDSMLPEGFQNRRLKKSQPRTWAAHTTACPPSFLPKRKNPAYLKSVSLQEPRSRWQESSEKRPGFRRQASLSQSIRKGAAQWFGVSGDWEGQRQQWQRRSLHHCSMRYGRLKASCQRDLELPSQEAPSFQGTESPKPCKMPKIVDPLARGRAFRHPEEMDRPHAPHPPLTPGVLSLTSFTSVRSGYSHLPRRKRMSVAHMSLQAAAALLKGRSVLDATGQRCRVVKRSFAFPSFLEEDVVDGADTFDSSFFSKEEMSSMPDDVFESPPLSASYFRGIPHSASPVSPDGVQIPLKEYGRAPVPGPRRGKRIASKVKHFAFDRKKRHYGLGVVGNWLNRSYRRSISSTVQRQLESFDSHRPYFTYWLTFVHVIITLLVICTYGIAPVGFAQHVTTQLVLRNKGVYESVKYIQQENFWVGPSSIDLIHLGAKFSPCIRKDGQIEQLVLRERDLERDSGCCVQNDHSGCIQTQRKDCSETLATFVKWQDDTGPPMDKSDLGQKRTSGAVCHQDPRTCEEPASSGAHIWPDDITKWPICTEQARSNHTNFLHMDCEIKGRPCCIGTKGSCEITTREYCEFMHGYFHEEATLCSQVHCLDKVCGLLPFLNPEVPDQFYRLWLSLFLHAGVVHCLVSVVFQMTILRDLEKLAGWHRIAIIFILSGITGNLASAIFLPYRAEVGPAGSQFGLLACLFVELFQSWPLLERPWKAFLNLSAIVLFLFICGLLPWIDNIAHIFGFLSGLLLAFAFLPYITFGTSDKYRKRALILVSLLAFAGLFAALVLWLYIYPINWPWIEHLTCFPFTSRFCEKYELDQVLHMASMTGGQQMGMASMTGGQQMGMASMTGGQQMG

B1: antibody 43 (antibody, V domains shown)
VH: QVALKESGPGILQPSQTLSLTCSFSGFSLSTFGMGVGWIRQSSGKGLEWLANIWWDDDKYYNPALKSRLTISKDASKNQAFLKIANVDTADTATYYCARIGNYGSNYWYFDVWGTGTTVTVSS
VL: QIVLTQSPAIMSASPGERVTMTCSANSRISYMYWYQQKPGSSPRLLIYDTSNLASGVPVRFSGSGSGTSYSLTISRMEAEDAATYNCQQWSSYPLTFGAGTKLELK
notes: mouse IgG, kappa light chain; also called clone #43; purified antibody 43
B2: antibody 48 (antibody, V domains shown)
VH: QVQLQQSGTELVRPGTSVKVSCKASGYAFTNYLIEWVKQRPGQGLEWIGVINPGSGFTKYNEKFKGKATLTADKSSSTVYMHLSSLTSEDSAVYFCARGLYRAMDYWGQGTSVTVSS
VL: DIQMTQSPASQSASLGESVTITCLASQTIATWLAWYQQKPGKSPQLLIYGATTLADGVPSRFSGGGSGTKFSFKISSLQAEDFVSYYCQQLYSTPYTFGGGTKLEIK
notes: mouse IgG, kappa light chain; also called clone #48; purified antibody 48
B3: antibody 50 (antibody, V domains shown)
VH: B2 VH with T9A, T16A, T30S, V79A, H82Q
VL: B2 VL with A30G, G50A, T52A, T53S, S85N, L91I
notes: mouse IgG, kappa light chain; also called clone #50; purified antibody 50

What follows are binders tested against T1, hiR2-FL-G587N-T7 (assay: FACS, MEF-DKO cells, 3 µg/ml).
From the text: In brief, immortalized MEF-DKO hiR2-FL-G563D-T7, MEF-DKO hiR2-FL-A564P-T7, MEF-DKO hiR2-FL-1566E-T7, MEF-DKO hiR2-FL-D569E-T7, MEF-DKO hiR2-FL-E579K-T7, MEF-DKO hiR2-FL-Q580N-T7, MEF-DKO hiR2-FL-A581S-T7, MEF-DKO hiR2-FL-R582A-T7, MEF-DKO hiR2-FL-S583G-T7, MEF-DKO hiR2-FL-G587N-T7, MEF-DKO hiR2-FL-F588H-T7, MEF-DKO hiR2-FL-L589P-T7, MEF-DKO hiR2-FL-E594V-T7, MEF-DKO hiR2-FL-K596T-T7, MEF-DKO hiR2-FL-S607R-T7, MEF-DKO hiR2-FL-T612S-T7, MEF-DKO hiR2-FL-E617D-T7, MEF-DKO hiR2-FL-H620R-T7, MEF-DKO hiR2-FL-L636M-T7, MEF-DKO hiR2-FL-K638D-T7, MEF-DKO hiR2-FL-1771F-T7, MEF-DKO hiR2-FL-1825V-T7, MEF-DKO hiR2-FL-1828V-T7, MEF-DKO hiR2-FL-N829R-T7, MEF-DKO hiR2-FL-W830C-T7, MEF-DKO hiR2-FL-P831E-T7, MEF-DKO hiR2-FL-I833C-T7, MEF-DKO hiR2-FL-H835F-T7, MEF-DKO hiR2-FL-F8391-T7, MEF-DKO hiR2-FL-S843D-T7, MEF-DKO hiR2-FL-Q853A-T7, MEF-DKO hiR2-FL-V854Q-T7 and MEF-DKO hiR2-FL-R844K-T7 cells were harvested with 10 mM EDTA in PBS, washed and resuspended in FACS buffer (PBS, 3% FBS, 0.05% sodium azide), and seeded in Nunc U-bottom 96-well plates (Thermo Fisher Scientific, USA) at approximately 1×10⁵ cells per well. To pellet cells and remove supernatants, the plates were centrifuged at 1,500 rpm and 4° C. for 3 minutes. For primary staining, cells were resuspended in 100 μl per well of either FACS buffer alone (controls) or the purified antibodies 3, 5, 16, 22, 34, 42, 43, 44, 48, and 50 of the invention at 3 μg/ml in FACS buffer and incubated on ice for 1 hour. Afterwards, plates were centrifuged at 1,500 rpm and 4° C. for 3 minutes and washed twice with 200 μl per well of FACS buffer. For secondary staining, cells were spun down and resuspended in 100 μl per well of PE-conjugated goat anti-mouse IgG F(ab′)2 detection fragment (Dianova, Germany) diluted 1:100 in FACS buffer. Protected from light, the cell suspensions were incubated on ice for 1 hour. Plates were then centrifuged at 1,500 rpm and 4° C. for 3 minutes and washed three times with 200 μl per well of FACS buffer. Finally, cells were resuspended in 150 μl per well of FACS buffer and analyzed using a BD Accuri™ C6 Plus flow cytometer (Becton Dickinson, Germany).

| Binder | loss of binding vs wild type [%] |
| --- | --- |
| B1 | ≥ 30 |
| B2 | ≥ 60 |
| B3 | ≥ 60 |
